According to publication PMC7382501 (Nature Communications, 2020):

Molecular target: the molecule itself
Assay: crystal structure

B1: FasRΔ33, truncated FasR lacking the first 33 amino acids (domain or fragment)
chain: RLPRDERRGQLLVVASDVFVDRGYHAAGMDEIADRAGVSKPVLYQHFSSKLELYLAVLHRHVENLVSGVHQALSTTTDNRQRLHVAVQAFFDFIEHDSQGYRLIFENDFVTEPEVAAQVRVATESCIDAVFALISADSGLDPHRARMIAVGLVGMSVDCARYWLDADKPISKSDAVEGTVQFAWGGLSHVPLTRS
  stoichiometry N: 2
